One substance from patent US9926369B2, “Methods for treating hepatocellular cancer by administering an anti-Ang-2 antibody” (Regeneron Pharmaceuticals, Inc., priority 2009, dated 2018) can be followed below.

In experiment [1] the target is T1, hAng-2FD-mFc K-432-N (Homo sapiens, UniProt O15123, K432N).
T1 construct: made in house
As to the kind of experiment: Ang-2FD-mFc point mutant binding experiment (SPR), K-432-N. Particulars: K-432-N mutant captured; antibody/peptibody at 100 nM; 25° C. The text has this: (§1) To further characterize binding between hAng2 and anti-hAng2 mAbs of the invention, seven variant hAng2-FD-mFc proteins were generated, each containing a single point mutation. Amino acids selected for mutation were based on the difference in sequence between hAng-2 and hAng-1 in the region that interacts with hTie-2 (FIG. 1). In particular, amino acids within the fibrinogen-like domain (FD) of Ang-2 which are believed to interact with Tie-2 based on crystal structure analysis, but which differ from the corresponding amino acid in Ang-1, were individually mutated to the corresponding hAng-1 residue. The results of this example indicate the amino acid residues of hAng-2 with which the Ang-2 preferential binding antibodies interact.
(§2) In this experiment, each of the seven hAng-2FD-mFc mutant proteins were captured (˜147-283 RU) on an anti-mouse-Fc surface created through direct chemical coupling to a BIACORE™ chip. Then each Ang-2 antibody (or peptibody, as the case may be) at 100 nM was injected over the captured mFc-tagged hAng-2FD protein surface at a flowrate of 50 μl/min for 180 sec, and the dissociation of variant hAng2-FD-mFc and antibody was monitored in real time for 20 min at 25° C.

Experiment [2] concerns the target T2, hAng-2-WT binding to hTie-2-mFc (Homo sapiens, UniProt O15123).
T2 sequence (O15123 19-496): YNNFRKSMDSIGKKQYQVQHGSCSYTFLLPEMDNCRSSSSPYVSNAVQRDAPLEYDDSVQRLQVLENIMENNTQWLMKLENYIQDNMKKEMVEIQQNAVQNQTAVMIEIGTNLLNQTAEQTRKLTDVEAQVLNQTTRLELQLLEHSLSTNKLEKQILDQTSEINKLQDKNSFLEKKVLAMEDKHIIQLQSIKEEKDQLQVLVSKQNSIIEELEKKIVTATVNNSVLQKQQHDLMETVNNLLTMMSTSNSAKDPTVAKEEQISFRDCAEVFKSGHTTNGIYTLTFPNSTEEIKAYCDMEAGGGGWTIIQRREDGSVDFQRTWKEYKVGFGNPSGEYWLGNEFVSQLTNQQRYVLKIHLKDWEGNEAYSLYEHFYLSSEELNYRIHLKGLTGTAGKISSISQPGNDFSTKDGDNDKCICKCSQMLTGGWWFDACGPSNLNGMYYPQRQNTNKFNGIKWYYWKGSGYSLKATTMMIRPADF
As to the kind of experiment: Biosensor SPR blocking of hAng-2-WT binding to hTie-2-mFc-ecto surface. In kind it is biochemical. Particulars: 25 nM hAng-2-WT. The procedure: The foregoing experiment was repeated using different amounts of Ang-2 blockers and controls. In particular, a human Tie-2 full-length extracellular domain construct (hTie-2-mFc-ecto) was amine-coupled on a BIACORE™ chip to create a receptor-coated surface. Selected anti-hAng-2 antibodies and control constructs (50 or 150 nM) were mixed with hAng-2-WT (25 nM) followed by 60 minutes incubation at 25° C. to allow antibody-antigen binding to reach equilibrium. The equilibrated solutions were injected over the receptor surfaces at 10 μL/min for 5 minutes at 25° C. To evaluate the ability of the selected anti-hAng-2 antibodies to block Ang-1-WT binding to hTie-2, a similar procedure was followed except the antibodies were tested at three concentrations (50, 100 or 1000 nM) and incubated with 10 nM of hAng-1-WT. Changes in resonance units (RU) due to the binding of the Ang-2-WT or hAng-1-WT to hTie-2-mFc were determined. An irrelevant antibody with no binding to either angiopoietin was included in these experiments to establish the 0% blocking baseline, and a human Tie-2-mFc construct was used as a positive control for blocking. Results are summarized in Tables 21 (hAng-1 applied to a hTie-2 surface) and 22 (hAng-2 applied to a hTie-2 surface).

In experiment [3] the test system is retinal superficial vasculature. Briefly: Retinal vascularization in wild-type mice. The format is in vivo. Conditions: 12.5 mg/kg subcutaneous at P2, retina at P5. The procedure: In one set of experiments wild-type mice were used. In another set, mice expressing a human Ang-2 in place of the wild-type mouse Ang-2 (designated “hu-Ang-2 mice”) were used. The mice at two days of age (P2) were injected subcutaneously with either control Fc or with selected anti-Ang-2 antibodies at a dose of 12.5 mg/kg. Three days later (at P5), pups were euthanized, and eyeballs were enucleated and fixed in 4% PFA for 30 minutes. Retinas were dissected, stained with Griffonia simplicifolia lectin-1 for 3 hours or overnight at 4° C. to visualize the vasculature, and flat-mounted on microscope slides. Images were taken using a Nikon Eclipse 80i microscope camera and analyzed using Adobe Photoshop CS3, Fovea 4.0, and Scion 1.63 software.
Areas of the retina covered with superficial vasculature were measured and used as a readout of antibody activity. The reduction in the size of the vascular areas in mice treated with antibody compared to Fc-treated controls is presented in Table 34. The percent reduction in vascular area reflects the anti-angiogenic potency of the antibody. (N/D=not determined)

Experiment [4] addresses T3, hAng-2FD-mFc S-480-P (Homo sapiens, UniProt O15123, S480P).
T3 construct: made in house
As to the kind of experiment: Ang-2FD-mFc point mutant binding experiment (SPR), S-480-P. Conditions: S-480-P mutant captured; antibody/peptibody at 100 nM; 25° C.
Description: as §1, §2

In experiment [5] the target is WT Ang-2FD-mFc construct (Homo sapiens, UniProt O15123). Briefly: Ang-2FD-mFc point mutant binding experiment (SPR), wild-type. Conditions: WT hAng-2FD-mFc captured; antibody/peptibody at 100 nM; 25° C.
Sequence of WT Ang-2FD-mFc construct (O15123 with tags, fused parts or gaps): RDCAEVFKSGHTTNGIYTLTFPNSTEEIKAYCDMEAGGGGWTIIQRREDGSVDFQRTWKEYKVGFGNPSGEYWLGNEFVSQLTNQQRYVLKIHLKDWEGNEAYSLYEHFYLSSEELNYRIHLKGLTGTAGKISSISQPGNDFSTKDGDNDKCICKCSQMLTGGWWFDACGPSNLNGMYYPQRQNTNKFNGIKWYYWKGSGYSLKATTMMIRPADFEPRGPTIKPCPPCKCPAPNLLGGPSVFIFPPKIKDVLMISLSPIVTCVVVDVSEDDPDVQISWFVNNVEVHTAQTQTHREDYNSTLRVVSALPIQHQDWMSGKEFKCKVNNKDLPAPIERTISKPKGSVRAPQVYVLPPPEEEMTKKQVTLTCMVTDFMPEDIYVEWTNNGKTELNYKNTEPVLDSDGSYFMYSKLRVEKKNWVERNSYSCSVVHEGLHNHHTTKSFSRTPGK
Description: as §1, §2

Experiment [6] deals with Dimeric Human Ang-2FD-mFc (Homo sapiens, UniProt O15123). Briefly: Cross-species SPR binding at 25° C. or 37° C., human Ang-2FD-mFc. The protocol:
Additional binding experiments were conducted using selected anti-Ang-2 antibodies at two different temperatures to further assess cross-species affinity. Each selected antibody or control construct was captured at a flow rate of 40 μL/min for 1 minute on a goat anti-human kappa polyclonal antibody surface created through direct chemical coupling to a BIACORE™ chip to form a captured antibody surface. Human, monkey and mouse Ang-2FD-Fc at a concentration of 25 nM or 0.78 nM was injected over the captured antibody surface at a flowrate of 60 μL/min for 3 minutes, and antigen-antibody dissociation was monitored in real time for 20 minutes at either 25° C. or 37° C.
Background: SPR reads the build-up and loss of mass on a sensor chip optically.

Experiment [7] concerns the target T4, hAng-2FD-mFc S-417-I (Homo sapiens, UniProt O15123, S417I).
T4 construct: made in house
As to the kind of experiment: Ang-2FD-mFc point mutant binding experiment (SPR), S-417-I. Conditions: S-417-I mutant captured; antibody/peptibody at 100 nM; 25° C.
Description: as §1, §2

T1 sequence (O15123 with tags, fused parts or gaps K432N): as the sequence (O15123 with tags, fused parts or gaps) above, with K151N counted along it
Sequence of Dimeric Human Ang-2FD-mFc (O15123 with tags, fused parts or gaps): as the sequence (O15123 with tags, fused parts or gaps) above
T4 sequence (O15123 with tags, fused parts or gaps S417I): as the sequence (O15123 with tags, fused parts or gaps) above, with S136I counted along it
T3 sequence (O15123 with tags, fused parts or gaps S480P): as the sequence (O15123 with tags, fused parts or gaps) above, with S199P counted along it

For the substance “H1H685P: human anti-Ang-2 antibody, HCVR/LCVR SEQ ID NOs 18/20; also referred to as mAb1 [Antibody H1H685P]”, the equilibrium dissociation constant (Kd) in experiment [1] stood at 0.014 nM; in experiment [4], 0.205 nM; in experiment [5] it was 0.0223 nM; in experiment [6] (25° C.), 0.0117 nM; in experiment [6] (37° C.), 0.027 nM; in experiment [7], 0.0305 nM. Also, the RU came out at 152.68 RU in experiment [1], 161.13 RU in experiment [4], 210.70 RU in experiment [5] and 127.65 RU in experiment [7]. The “Percent of Neg. Ctrl Binding (hAng-2 WT)” value in experiment [2] (50 nM antibody or control) and in experiment [2] (150 nM antibody or control) was 4.3% throughout. Besides, the “Specific Bound RU (hAng-2 WT)” value in experiment [2] (50 nM antibody or control) and in experiment [2] (150 nM antibody or control) was 12 RU each time. The “% Reduction in Vascular Area Relative to Fc Control, Wild-Type Mice” value in experiment [3] is 39.7%.

As usually defined, the Kd is the constant that tells how readily two partners part at equilibrium. A higher Kd goes with lower affinity.
